Patent US7910102B2 (priority 2006, dated 2011)
Entries after “also recorded” stand apart in the source; their conditions may differ.

Key:
IL-2R on CD4+ T cells = assay type: cell-based, human
human Kv1.3 [1] = target: T1, human Kv1.3 (Homo sapiens, UniProt P22001); test: Immunohistochemistry of peptibody binding to HEK 293 cells overexpressing human Kv1.3; design: expressed in transfected cells; conditions: 5 μg/ml peptibody
Experimental: Immunohistochemistry analysis of Fc-L10-ShK[1-35] binding to HEK 293 cells overexpressing human Kv1.3. HEK 293 cells overexpressing human Kv1.3 (HEK Kv1.3) were obtained from BioFocus plc (Cambridge, UK) and maintained per manufacturer's recommendation. The parental HEK 293 cell line was used as a control. Cells were plated on Poly-D-Lysine 24 well plates (#35-4414; Becton-Dickinson, Bedford, Mass.) and allowed to grow to approximately 70% confluence. HEK KV1.3 were plated at 0.5×10e5 cells/well in 1 ml/well of medium. HEK 293 cells were plated at a density of 1.5×10e5 cells/well in 1 ml/well of medium. Before staining, cells were fixed with formalin (Sigma HT50-1-1 Formalin solution, diluted 1:1 with PBS/0.5% BSA before use) by removing cell growth medium, adding 0.2 ml/well formalin solution and incubating at room temperature for ten minutes. Cells were stained by incubating with 0.2 ml/well of 5 μg/ml Fc-L10-ShK[1-35] in PBS/BSA for 30′ at room temperature. Fc-L10-ShK[1-35] was aspirated and then the cells were washed one time with PBS/0.5% BSA. Detection antibody (Goat F(ab)2 anti-human IgG-phycoerythrin; Southern Biotech Associates, Birmingham, Ala.) was added to the wells at 5 μg/ml in PBS/0.5% BSA and incubated for 30′ at room temperature. Wash cells once with PBS/0.5% BSA and examine using confocal microscopy (LSM 510 Meta Confocal Microscope; Carl Zeiss AG, Germany). […]

[2] = test system: T cell proliferation, human PBMCs; test: T cell proliferation (3H-thymidine incorporation) in anti-CD3/anti-CD28 stimulated human PBMCs; assay type: cell-based; conditions: antibodies to CD3 and CD28
Text: Inhibition of T cell proliferation following anti-CD3 and anti-CD28 antibody stimulation of PBMCs. PBMC's were previously isolated from normal human donor Leukophoresis packs, purified by density gradient centrifugation (Ficoll Hypaque), cryopreserved in CPZ Cryopreservation Medium Complete (INCELL, MCPZF-100 plus 10% DMSO final). PBMC's were thawed (95% viability), washed, and seeded at 2×10^5 cells per well in culture medium (RPMI medium 1640; GIBCO) supplemented with 10% fetal calf serum, 100 U/ml penicillin, […] streptomycin, 2 mM L-glutamine, 100 μM non-essential amino acids, and 20 μM 2-ME) in 96-well flat-bottom tissue culture plates. Cells were pre-incubated with either anti-human CD32 (FcyRII) blocking antibody (per manufacturers instructions EASY SEP Human Biotin Selection Kit #18553, StemCell Technologies Vancouver, BC) or Fc-L10-ShK (100 nM-0.001 nM final) for 45 min. Fc-L10-ShK (100 nM-0.001 nM final) was then added to the cells containing anti-human CD32 blocking antibody while medium was added to the cells containing Fc-L10-ShK. Both sets were incubated for an additional 45 min before stimulating for 48 hr with aCD3/aCD28 (0.2 ng/ml and 100 ng/ml, respectively). Final assay volume was 200 ul. […] Cells were then harvested onto glass fiber filters and radioactivity was measured in a B-scintillation counter.

human Kv1.3 [3] = target: T1, human Kv1.3; test: Whole cell immunoassay (ELISA) of binding to fixed HEK 293 cells overexpressing Kv1.3; design: expressed in transfected cells
Experimental: Our peptibody reagent can be a useful and convenient tool for monitoring Kv1.3 channel expression in patients and have utility in diagnostic applications. The procedure shown in FIG. 34A and FIG. 34B follows.
FIG. 34A. A whole cell immunoassay was performed to show binding of intact Fc-L10-ShK[1-35] to Kv1.3 transfected HEK 293 cells (BioFocus plc, Cambridge, UK). Parent HEK 293 cells or HEK Kv1.3 cells were plated at 3×10e4 cells/well in poly-D-Lysine coated ninety-six well plates (#35-4461; Becton-Dickinson, Bedford, Mass.). Cells were fixed with formalin (Sigma HT50-1-1 Formalin solution, diluted 1:1 with PBS/0.5% BSA before use) by removing cell growth medium, adding 0.2 ml/well formalin solution and incubating at room temperature for 25 minutes and then washing one time with 100 μl/well of PBS/0.5% BSA. Wells were blocked by addition of 0.3 ml/well of BSA blocker (50-61-00; KPL 10% BSA Diluent/Blocking Solution, diluted 1:1 with PBS; KPL, Gaithersburg, Md.) followed by incubation at room temperature, with shaking, for 3 hr. Plates were washed 2 times with 1×KP Wash Buffer (50-63-00; KPL). […] Absorbance was read at 450 nm on a Molecular Devices SpectroMax 340 (Sunnyvale, Calif.).
FIG. 34B. […] Absorbances were read at 405 nm after stopping reactions by addition of 0.1 ml/well of 1% SDS.

CD40L on CD4+ T cells = assay type: cell-based, human
human Kv1.1 = target: T2, human Kv1.1 (Homo sapiens, UniProt Q09470); assay type: cell-based; conditions: read-out: hKv1.1: IC50
T2 construct: expressed in transfected cells; host or cells: HEK293

human Kv1.3 [4] = target: T1, human Kv1.3; assay type: cell-based

T1 sequence (P22001 whole entry): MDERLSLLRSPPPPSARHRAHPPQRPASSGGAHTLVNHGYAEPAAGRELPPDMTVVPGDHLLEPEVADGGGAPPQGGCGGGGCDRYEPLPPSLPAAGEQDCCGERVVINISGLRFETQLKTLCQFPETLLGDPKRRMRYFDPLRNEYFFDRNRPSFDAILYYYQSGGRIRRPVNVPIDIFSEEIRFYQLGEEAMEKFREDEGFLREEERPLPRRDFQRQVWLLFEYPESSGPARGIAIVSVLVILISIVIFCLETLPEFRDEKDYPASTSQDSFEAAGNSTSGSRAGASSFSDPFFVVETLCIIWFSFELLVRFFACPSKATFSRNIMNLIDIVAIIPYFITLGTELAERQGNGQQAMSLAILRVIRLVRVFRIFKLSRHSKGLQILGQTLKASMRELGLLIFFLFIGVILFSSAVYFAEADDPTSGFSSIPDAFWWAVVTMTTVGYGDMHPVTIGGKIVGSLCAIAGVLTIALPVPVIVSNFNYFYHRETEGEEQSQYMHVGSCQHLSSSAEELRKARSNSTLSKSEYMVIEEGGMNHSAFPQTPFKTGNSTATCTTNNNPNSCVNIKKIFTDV
T2 sequence (Q09470 whole entry): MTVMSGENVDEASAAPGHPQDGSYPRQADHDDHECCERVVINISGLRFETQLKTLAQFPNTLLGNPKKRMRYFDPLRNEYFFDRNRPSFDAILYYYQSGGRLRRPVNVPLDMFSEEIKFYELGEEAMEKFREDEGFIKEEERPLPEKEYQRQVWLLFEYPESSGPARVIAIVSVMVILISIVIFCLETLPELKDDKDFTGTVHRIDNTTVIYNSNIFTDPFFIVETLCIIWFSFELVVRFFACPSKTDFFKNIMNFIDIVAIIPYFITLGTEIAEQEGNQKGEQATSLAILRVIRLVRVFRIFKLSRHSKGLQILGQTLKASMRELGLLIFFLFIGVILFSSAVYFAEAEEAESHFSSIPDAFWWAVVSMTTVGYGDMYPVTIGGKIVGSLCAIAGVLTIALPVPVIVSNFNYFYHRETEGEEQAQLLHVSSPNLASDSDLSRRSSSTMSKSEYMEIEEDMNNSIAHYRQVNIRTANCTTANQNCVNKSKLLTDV

Substance | block of thapsigargin-induced upregulation of the IL-2R on T cells (in words) (IL-2R on CD4+ T cells) | staining of Kv1.3-transfected HEK 293 cells (in words) (human Kv1.3 [1]) | inhibition of T cell proliferation (in words) [2] | binding to fixed HEK 293 cells overexpressing Kv1.3 (in words) (human Kv1.3 [3]) | block of thapsigargin-induced upregulation of CD40L on T cells (in words) (CD40L on CD4+ T cells) | IC50 (human Kv1.1) [nM] | fold less potent than the synthetic OSK1 toxin peptide (human Kv1.3 [4])
Fc-L10-ShK[1-35]: Fc region of human IgG1 fused in-frame to a 10 amino acid linker and the Kv1.3 inhibitor peptide ShK[1-35]; peptibody | suppressed | stains HEK 293 cells stably transfected with human Kv1.3 | inhibits T cell proliferation; also recorded: blocked T cell proliferation; also recorded: potently inhibits proliferation of T cells in a dose-dependent manner | dose-dependent increase in response; also recorded: high affinity binding to its target | suppressed |  | 
Fc-L10-OSK1[E16K,K20D] |  |  |  |  |  | > 100 | approximately 6 fold
